2 substances from EP2848684A1 can be followed below.

For the test, the target named is NifDK complex purified from Azotobacter vinelandii (Azotobacter vinelandii) (UniProt P07328). Nature of the test: cell-based or functional assay.
Chain of UniProt P07328 (P07328 2-492 limits assumed, chain 1 of 2): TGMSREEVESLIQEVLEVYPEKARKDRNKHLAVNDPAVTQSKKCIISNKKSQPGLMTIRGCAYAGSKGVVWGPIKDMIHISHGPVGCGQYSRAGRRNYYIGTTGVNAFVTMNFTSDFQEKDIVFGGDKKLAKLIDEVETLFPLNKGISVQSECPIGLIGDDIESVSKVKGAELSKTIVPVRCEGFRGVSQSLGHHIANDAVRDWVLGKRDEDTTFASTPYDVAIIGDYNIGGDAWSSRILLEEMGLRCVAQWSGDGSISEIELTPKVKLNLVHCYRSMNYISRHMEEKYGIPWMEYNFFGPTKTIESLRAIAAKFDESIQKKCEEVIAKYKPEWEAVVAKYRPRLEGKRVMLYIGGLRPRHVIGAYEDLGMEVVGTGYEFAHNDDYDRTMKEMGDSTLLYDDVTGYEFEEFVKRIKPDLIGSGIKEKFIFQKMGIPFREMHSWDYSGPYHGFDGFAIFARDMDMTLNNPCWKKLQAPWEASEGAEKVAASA
Chain of UniProt P07328 (P07329 2-523 limits assumed, chain 2 of 2, further chain): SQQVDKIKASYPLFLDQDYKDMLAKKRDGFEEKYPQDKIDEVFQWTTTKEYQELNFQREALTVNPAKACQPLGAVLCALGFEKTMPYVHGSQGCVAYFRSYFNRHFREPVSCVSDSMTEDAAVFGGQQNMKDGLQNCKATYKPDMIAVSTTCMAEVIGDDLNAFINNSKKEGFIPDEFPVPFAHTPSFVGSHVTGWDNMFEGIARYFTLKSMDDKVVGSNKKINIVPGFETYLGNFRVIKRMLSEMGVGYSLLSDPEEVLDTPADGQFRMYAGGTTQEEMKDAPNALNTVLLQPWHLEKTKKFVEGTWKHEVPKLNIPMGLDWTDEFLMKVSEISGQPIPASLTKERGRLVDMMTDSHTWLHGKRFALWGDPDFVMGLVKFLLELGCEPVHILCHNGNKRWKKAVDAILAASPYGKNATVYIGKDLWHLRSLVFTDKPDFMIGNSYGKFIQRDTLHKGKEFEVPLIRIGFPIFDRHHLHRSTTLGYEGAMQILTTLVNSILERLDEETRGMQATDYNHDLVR

For “NifH protein purified from Azotobacter vinelandii (from UniProt P00459 2-290) (enzyme)”, the Ammonia worked out at 179 nmol/mL and the RFU (Relative Fluorescence Units, ammonia detection) amounted to 1300 RFU.
The matching figures for “NifH purified from recombinant Saccharomyces cerevisiae GF2 cells (mlsSOD2-his8-NifH, A. vinelandii NifH sequence) (from UniProt P00459 1-290) (enzyme)”: 200 nmol/mL and 1460 RFU.
